Test results reported in patent publication US20080261241A1, “Targeted ubiquitination of proteins and screening methods using a new class of ubiquitin ligase proteins” (INSTITUT PASTEUR, priority 2007, published 2008).
Peptide text beside a SMILES is read from it. * marks the point of attachment. Cbz = O=C(OCc1ccccc1)*

What was measured:
[1] = test system: proteasome; test: Proteasome inhibition: Ste7 disappearance in MG132-permeable erg6 mutant; format: cell-based, Saccharomyces cerevisiae; conditions: MG132 100 μM, 2 h
Description: To test if the IpaH-mediated disappearance of Ste7 required proteasome function, a yeast strain carrying the cim5-1 allele encoding a component of the 26-S proteasome that is functional at 25° C. but not at 37° C. (Ghislain et al., 1993) was used. […] (FIG. 3A). […] Thus, the disappearance of Ste7 promoted by IpaH9.8 is proteasome-dependent.
Standard media and techniques were used for transformation, maintenance, and growth of yeast (Guthrie C, 1991). Halo assays were performed as described (Hoffman et al., 2002) using disks impregnated with 15 μg of α-factor. erg6 ? yeast were transformed with plasmids encoding IpaH9.8 or IpaH9.8-C337A and grown in selective media containing 1% raffinose to mid log phase. Following addition of MG132 (100 μM) and galactose (2%), cultures were incubated for 2 h and cell extracts were prepared as described (Wang et al., 2003). β-Galactosidase assays were performed as described (Guarente, 1983).

[2] = test system: sst2Δ cells; test: Growth of sst2Δ yeast in the presence of pheromone; format: cell-based, Saccharomyces cerevisiae; conditions: galactose-induced production, α-factor plates
[3] = target: His-tagged UbcH5B, P62837
Sequence of His-tagged UbcH5B, P62837 (P62837 whole entry, looked up): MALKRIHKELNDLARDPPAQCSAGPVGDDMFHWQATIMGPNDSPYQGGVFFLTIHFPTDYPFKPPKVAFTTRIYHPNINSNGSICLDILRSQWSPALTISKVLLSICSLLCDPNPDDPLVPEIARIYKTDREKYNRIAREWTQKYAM

## CC(C)C[C@@H](C=O)NC(=O)[C@H](CC(C)C)NC(=O)[C@H](CC(C)C)NC(=O)OCc1ccccc1 [MG132] (Cbz-Leu-Leu-Leu-aldehyde)
[1]
  disappearance of Ste7 provoked by IpaH9.8: prevented the disappearance of Ste7

B1: IpaH7.8: another IpaH family member from Shigella (protein, UniProt P18014 1-565, looked up)
E3 ubiquitin-protein ligase …: MFSVNNTHSSVSCSPSINSNSTSNEHYLRILTEWEKNSSPGEERGIAFNRLSQCFQNQEAVLNLSDLNLTSLPELPKHISALIVENNKLTSLPKLPAFLKELNADNNRLSVIPELPESLTTLSVRSNQLENLPVLPNHLTSLFVENNRLYNLPALPEKLKFLHVYYNRLTTLPDLPDKLEILCAQRNNLVTFPQFSDRNNIRQKEYYFHFNQITTLPESFSQLDSSYRINISGNPLSTRVLQSLQRLTSSPDYHGPQIYFSMSDGQQNTLHRPLADAVTAWFPENKQSDVSQIWHAFEHEEHANTFSAFLDRLSDTVSARNTSGFREQVAAWLEKLSASAELRQQSFAVAADATESCEDRVALTWNNLRKTLLVHQASEGLFDNDTGALLSLGREMFRLEILEDIARDKVRTLHFVDEIEVYLAFQTMLAEKLQLSTAVKEMRFYGVSGVTANDLRTAEAMVRSREENEFTDWFSLWGPWHAVLKRTEADRWAQAEEQKYEMLENEYSQRVADRLKASGLSGDADAEREAGAQVMRETEQQIYRQLTDEVLALRLSENGSRLHHS
[2]
  growth of sst2Δ cells in the presence of pheromone: rescued the pheromone-induced growth arrest of sst2Δ cells

B2: GST-IpaH9.8 (protein)
chain: MLPINNNFSLPQNSFYNTISGTYADYFSAWDKWEKQALPGEERDEAVSRLKECLINNSDELRLDRLNLSSLPDNLPAQITLLNVSYNQLTNLPELPVTLKKLYSASNKLSELPVLPPALESLQVQHNELENLPALPDSLLTMNISYNEIVSLPSLPQALKNLRATRNFLTELPAFSEGNNPVVREYFFDRNQISHIPESILNLRNECSIHISDNPLSSHALQALQRLTSSPDYHGPRIYFSMSDGQQNTLHRPLADAVTAWFPENKQSDVSQIWHAFEHEEHANTFSAFLDRLSDTVSARNTSGFREQVAAWLEKLSASAELRQQSFAVAADATESCEDRVALTWNNLRKTLLVHQASEGLFDNDTGALLSLGREMFRLEILEDIARDKVRTLHFVDEIEVYLAFQTMLAEKLQLSTAVKEMRFYGVSGVTANDLRTAEAMVRSREENEFTDWFSLWGPWHAVLKRTEADRWAQAEEQKYEMLENEYPQRVADRLKASGLSGDADAEREAGAQVMRETEQQIYRQLTDEVLALRLSENGSQLHHS
[3]
  removal of ubiquitin from ubiquitinated UbcH5B, immunoblot with streptavidin-peroxidase: after ubiquitination of UbcH5B, addition of GST-IpaH9.8 to the reaction mixture promoted the removal of ubiquitin from UbcH5B

B3: GST-SspH1 (protein)
chain: EFMLPINNNFSLPQNSFYNTISGTYADYFSAWDKWEKQALPGEERDEAVSRLKECLINNSDELRLDRLNLSSLPDNLPAQITLLNVSYNQLTNLPELPVTLKKLYSASNKLSELPVLPPALESLQVQHNELENLPALPDSLLTMNISYNEIVSLPSLPQALKNLRATRNFLTELPAFSEGNNPVVREYFFDRNQISHIPESILNLRNECSIHISDNPLSSHALQALQRLTSSPDYHGPRIYFSMSDGQQNTLHRPLADAVTAWFPENKQSDVSQIWHAFEHEEHANTFSAFLDRLSDTVSARNTSGFREQVAAWLEKLSASAELRQQSFAVAADATESCEDRVALTWNNLRKTLLVHQASEGLFDNDTGALLSLGREMFRLEILEDIARDKVRTLHFVDEIEVYLAFQTMLAEKLQLSTAVKEMRFYGVSGVTANDLRTAEAMVRSREENEFTDWFSLWGPWHAVLKRTEADRWAQAEEQKYEMLENEYPQRVADRLKASGLSGDADAEREAGAQVMRETEQQIYRQLTDEVLALRLFENGSQLHHS
[3]
  removal of ubiquitin from ubiquitinated UbcH5B: SspH1 was endowed with the activities (i) to remove ubiquitin from ubiquitinated UbcH5B
